Substrate in this data set: Nc1ncnc2c1ncn2[C@@H]1O[C@H](COP(=O)(O)OP(=O)(O)OP(=O)(O)OP(=O)(O)OC[C@H]2O[C@@H](n3cnc4c(N)ncnc43)[C@H](O)[C@@H]2O)[C@@H](O)[C@H]1O
Nature of the data set: fluorescent ADP assay, Lineweaver-Burk. The format is biochemical, Streptococcus pyogenes. The conditions noted are these: Mg2+-dependent, heading states optimal conditions (optimum pH 7.0, 45 °C), 0.1 mg/mL enzyme. From the text:
fluorescent ADP assay, Lineweaver-Burk on Sp-yqeK

B1: Sp-yqeK (Streptococcus pyogenes) (protein)
chain: MTYEDYLPYSRTELLAKIAEQMSPKRFKHVLGVEKAALSLAECYGCNPDKAGLAALLHDYAKECPDQVFLDLIDKYQLSPELAKWNNNVWHGMVGIYKIQEDLGLKDKDILRAIEIHTVGAAEMTLLDKVLYVADYIEEGRIFPLVDDARKIAKLDLNQAVAYETVNTVAYLASKAQPIFPQTLDTYNAFCSYLKEY
notes: pET28b (Nde I/Xho I), E. coli BL21(DE3), Ni-NTA purified; about 23 kDa; dimer in the asymmetric unit
With B1, the Km was 216.4 ± 21.65 µM.

For the origin of these results see paper PMC11857287.
